Experimental data reported in patent US11231420 (APTALOGIC, INC.).

T1: Lcn2 (lipocalin 2, uterocalin) (UniProt P11672 P11672:21-200)
T1 sequence: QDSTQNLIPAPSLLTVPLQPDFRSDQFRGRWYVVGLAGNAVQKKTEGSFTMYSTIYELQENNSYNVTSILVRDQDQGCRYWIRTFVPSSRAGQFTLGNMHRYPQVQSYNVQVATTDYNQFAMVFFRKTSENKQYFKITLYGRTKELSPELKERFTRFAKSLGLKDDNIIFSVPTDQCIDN

T2: SUDV sGP (soluble glycoprotein) (Sudan ebolavirus, UniProt Q7T9E0 Q7T9E0:33-324)
T2 sequence: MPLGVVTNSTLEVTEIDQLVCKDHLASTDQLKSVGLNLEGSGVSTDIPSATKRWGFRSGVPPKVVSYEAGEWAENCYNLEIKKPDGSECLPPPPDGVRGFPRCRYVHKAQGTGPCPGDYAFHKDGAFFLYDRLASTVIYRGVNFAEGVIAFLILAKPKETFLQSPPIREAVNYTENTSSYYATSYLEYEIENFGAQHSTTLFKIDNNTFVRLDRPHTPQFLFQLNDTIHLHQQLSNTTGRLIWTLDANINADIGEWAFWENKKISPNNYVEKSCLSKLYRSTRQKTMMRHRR

B1: Aptamer 6012 (ssDNA)
DNA: GCCTGTTGTGAGCCTCCTGTCGAACGTATTTCTTGCTTCCTTCCTTGCCGCGCACATTGCAGTATAAGTACCTGTCGTTGAGCGTTTATTCTTGTCTCCC
B2: Aptamer 6022 (ssDNA)
DNA: GCCTGTTGTGAGCCTCCTGTCGAACCCTATCTTGTTCATGCTATTCTCAATATTTTCGGTTCACTTACCGTCTGCCTTTGAGCGTTTATTCTTGTCTCCC
B3: Aptamer 6021 (ssDNA)
DNA: GCCTGTTGTGAGCCTCCTGTCGAAACTGTACTTCACTTTTACCTCCTCTTGCTCTTATCTGTACTATTGTCTCTCCGTTGAGCGTTTATTCTTGTCTCCC
B4: Aptamer 6011 (ssDNA)
DNA: GCCTGTTGTGAGCCTCCTGTCGAACAACCACTCATATCTACTACATGACTTGCTCCATTCTGTTCTTTCTCTACGCATTGAGCGTTTATTCTTGTCTCCC

Legend:
EBOV GP1,2 = EBOV GP1,2 (UniProt Q05320 Q05320:33-650); experiment: filter; settings: label: 5'-32P
EBOV GP1,2, sequence (Q05320 33-650, one chain of several): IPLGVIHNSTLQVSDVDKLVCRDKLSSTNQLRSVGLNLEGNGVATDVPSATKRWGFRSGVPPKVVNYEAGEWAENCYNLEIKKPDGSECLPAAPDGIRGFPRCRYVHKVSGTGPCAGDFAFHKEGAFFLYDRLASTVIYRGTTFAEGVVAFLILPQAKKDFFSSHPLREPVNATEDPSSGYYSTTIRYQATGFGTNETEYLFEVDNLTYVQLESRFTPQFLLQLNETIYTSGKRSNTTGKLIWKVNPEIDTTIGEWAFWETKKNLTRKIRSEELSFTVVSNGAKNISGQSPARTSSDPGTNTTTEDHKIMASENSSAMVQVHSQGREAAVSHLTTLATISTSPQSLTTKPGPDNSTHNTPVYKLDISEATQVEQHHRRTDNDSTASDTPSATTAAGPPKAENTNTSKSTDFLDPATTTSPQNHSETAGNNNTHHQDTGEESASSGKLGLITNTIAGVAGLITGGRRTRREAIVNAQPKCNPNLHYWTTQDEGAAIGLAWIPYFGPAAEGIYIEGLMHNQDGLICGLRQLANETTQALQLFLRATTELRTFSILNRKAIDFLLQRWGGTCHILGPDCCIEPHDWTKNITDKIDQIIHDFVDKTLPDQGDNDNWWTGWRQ

[1] = target: T3, Human serum albumin (HSA) (Homo sapiens, UniProt P02768 P02768:25-609); experiment: filter; HSA up to 6 uM; settings: label: 5'-32P
T3 sequence (P02768 25-609, one chain of several): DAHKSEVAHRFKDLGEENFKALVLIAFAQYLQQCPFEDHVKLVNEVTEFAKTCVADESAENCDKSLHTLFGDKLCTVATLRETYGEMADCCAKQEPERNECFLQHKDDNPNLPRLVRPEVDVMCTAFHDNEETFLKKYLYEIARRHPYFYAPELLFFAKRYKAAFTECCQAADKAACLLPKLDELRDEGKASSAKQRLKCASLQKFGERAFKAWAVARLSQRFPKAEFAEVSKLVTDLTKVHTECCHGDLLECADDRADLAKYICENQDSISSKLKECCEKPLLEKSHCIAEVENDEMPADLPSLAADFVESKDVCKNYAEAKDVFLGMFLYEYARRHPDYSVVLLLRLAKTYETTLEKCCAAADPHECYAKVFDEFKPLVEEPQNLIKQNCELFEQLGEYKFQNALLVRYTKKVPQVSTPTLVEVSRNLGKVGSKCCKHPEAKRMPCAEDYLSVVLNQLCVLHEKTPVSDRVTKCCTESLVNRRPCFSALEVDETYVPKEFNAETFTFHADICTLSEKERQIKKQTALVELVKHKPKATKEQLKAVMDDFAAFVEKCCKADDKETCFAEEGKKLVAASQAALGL

[2] = target: T4, EBOV sGP (soluble glycoprotein) (Zaire ebolavirus, UniProt P60170 P60170:33-324); experiment: filter; PBS with 5 mM Mg, pH 7; settings: tags: His-tag; chain copies: 2; label: 5'-32P
T4 sequence (P60170 33-324, one chain of several): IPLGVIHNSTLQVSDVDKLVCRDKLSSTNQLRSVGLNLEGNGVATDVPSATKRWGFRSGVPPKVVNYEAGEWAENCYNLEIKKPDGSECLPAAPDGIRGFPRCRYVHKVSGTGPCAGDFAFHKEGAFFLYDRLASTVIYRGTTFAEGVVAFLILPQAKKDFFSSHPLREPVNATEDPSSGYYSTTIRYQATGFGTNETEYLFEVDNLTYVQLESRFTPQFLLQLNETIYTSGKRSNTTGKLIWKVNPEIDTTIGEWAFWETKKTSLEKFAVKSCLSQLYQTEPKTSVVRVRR

[3] = target: T1, Lcn2 (lipocalin 2, uterocalin); experiment: filter; text says Lcn2 not bound by the aptamers; settings: tags: His-tag; label: 5'-32P
[4] = target: T3, Human serum albumin (HSA); experiment: filter; HSA tested up to 6 uM; estimated; settings: label: 5'-32P
[5] = target: T4, EBOV sGP (soluble glycoprotein); experiment: filter; settings: tags: His-tag; chain copies: 2; label: 5'-32P
[6] = target: T1, Lcn2 (lipocalin 2, uterocalin); experiment: filter; no serum; settings: tags: His-tag; label: 5'-32P
[7] = target: T2, SUDV sGP (soluble glycoprotein); experiment: filter; no serum; settings: chain copies: 2; label: 5'-32P

Binder | Kd (EBOV GP1,2) | binding result [1] | Kd [2] | binding result [3] | Kd [4] | Kd [5] | binding result (EBOV GP1,2) | binding result [6] | Kd [7]
B1 | 22 nM | no binding | 90 nM | no binding |  |  |  |  | 
B2 |  |  | 100 nM |  | ~100000 nM |  |  |  | 
B3 |  | no binding | 20 nM |  |  |  |  |  | 
B4 |  | no binding |  |  |  | 30 nM | binds | no binding | 240 nM
